One data set relates to biotinyl-Phe-oxazolone. The data set can be described thus: self-aminoacylation, catalytic enhancement (BFO) (fold over background); higher = more active; k-Seq, kA / k0A0; sequences stand for … in GGGAAUGGAUCCACAUCUACGAAUUC…UUCACUGCAGACUUGACGAAGCUG
The method in brief:
(§1)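 Mutagenized RNA pools with a 21-nt variable region (0.43 μM) were reacted with each biotinyl-aminoacyl-oxazolone at 2–1250 μM for 90 minutes at room temperature, in 50 μL HEPES/NaCl/KCl/MgCl2/CaCl2 buffer containing 5% acetonitrile at pH 6.9–7.0. RNA captured on streptavidin was quantified by triplicate qPCR and by Illumina sequencing. The fraction reacted for each sequence was fit to a pseudo-first-order model with bootstrapping, and catalytic enhancement is the median kA divided by the uncatalyzed rate, taken as the low-activity peak of a bimodal Gaussian fit.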

The test system of a further data set is biotinyl-Ile-oxazolone. Nature of the data set: self-aminoacylation, catalytic enhancement (BIO) (fold over background); higher = more active; k-Seq, kA / k0A0; sequences stand for … in GGGAAUGGAUCCACAUCUACGAAUUC…UUCACUGCAGACUUGACGAAGCUG
Summed up: as §1

The next data set relates to biotinyl-Met-oxazolone. The data set can be described thus: self-aminoacylation, catalytic enhancement (BMO) (fold over background); higher = more active; k-Seq, kA / k0A0; sequences stand for … in GGGAAUGGAUCCACAUCUACGAAUUC…UUCACUGCAGACUUGACGAAGCUG
Summed up: as §1

Another data set deals with biotinyl-Val-oxazolone. Nature of the data set: self-aminoacylation, catalytic enhancement (BVO) (fold over background); higher = more active; k-Seq, kA / k0A0; sequences stand for … in GGGAAUGGAUCCACAUCUACGAAUUC…UUCACUGCAGACUUGACGAAGCUG
The method in brief: as §1

For another data set, the system named is biotinyl-Leu-oxazolone. Nature of the data set: self-aminoacylation, catalytic enhancement (BLO) (fold over background); higher = more active; k-Seq, kA / k0A0; sequences stand for … in GGGAAUGGAUCCACAUCUACGAAUUC…UUCACUGCAGACUUGACGAAGCUG
Summed up:
as §1

For another data set, the system named is biotinyl-Trp-oxazolone. The data set can be described thus: self-aminoacylation, catalytic enhancement (BWO) (fold over background); higher = more active; k-Seq, kA / k0A0; sequences stand for … in GGGAAUGGAUCCACAUCUACGAAUUC…UUCACUGCAGACUUGACGAAGCUG
The method in brief:
as §1

Variants at the floor of the assay were thinned out.

The text below walks through data of the supplement of paper PMC9233669.

For “AAGUUUGCUAAUAGGCUCAAG [Fam3.1 aminoacylation ribozyme variant]”, the self-aminoacylation amounted to 0.973 in the data set with biotinyl-Phe-oxazolone; 0.664 in the data set on biotinyl-Ile-oxazolone; 0.493 with biotinyl-Met-oxazolone; 0.774 in the data set on biotinyl-Val-oxazolone; 0.715 in the data set with biotinyl-Leu-oxazolone; 0.535 with biotinyl-Trp-oxazolone.
Turning to “AAGUUUGCUAAUAGUAGCAAG [Fam3.1 aminoacylation ribozyme variant]”, the self-aminoacylation was determined as 1.22 in the data set on biotinyl-Phe-oxazolone; 1.04 with biotinyl-Ile-oxazolone; 1.02 in the data set with biotinyl-Met-oxazolone; 0.993 with biotinyl-Val-oxazolone; 0.95 with biotinyl-Leu-oxazolone; 0.96 with biotinyl-Trp-oxazolone.
Take “AAGUUUGCUAAUAGUAGCUAG [Fam3.1 aminoacylation ribozyme variant]”: the self-aminoacylation is 1.05 in the data set with biotinyl-Phe-oxazolone; 0.958 in the data set with biotinyl-Ile-oxazolone; 1.28 with biotinyl-Met-oxazolone; 0.988 in the data set on biotinyl-Val-oxazolone; 0.639 in the data set on biotinyl-Leu-oxazolone; 1.14 with biotinyl-Trp-oxazolone.
For “AAGUUUGCUAAUAGUAUCAAG [Fam3.1 aminoacylation ribozyme variant]”, the self-aminoacylation in the data set with biotinyl-Phe-oxazolone was found to be 1.64; with biotinyl-Ile-oxazolone it was 1; in the data set with biotinyl-Met-oxazolone it was 1.22; in the data set with biotinyl-Val-oxazolone it was 0.928; in the data set on biotinyl-Leu-oxazolone, 0.714; in the data set with biotinyl-Trp-oxazolone, 0.998.
Turning to “AAGUUUGCUAAUAGUCACAAG [Fam3.1 aminoacylation ribozyme variant]”, the self-aminoacylation in the data set with biotinyl-Phe-oxazolone came to 12.3; in the data set with biotinyl-Ile-oxazolone, 1.47; with biotinyl-Met-oxazolone, 1.45; in the data set on biotinyl-Val-oxazolone, 1.35; with biotinyl-Leu-oxazolone it was 1.21; in the data set on biotinyl-Trp-oxazolone it was 4.08.
For the sequence “AAGUUUGCUAAUAGUCACAAU [Fam3.1 aminoacylation ribozyme variant]”, the self-aminoacylation with biotinyl-Phe-oxazolone stood at 1.14; in the data set on biotinyl-Ile-oxazolone it was 1.18; in the data set on biotinyl-Met-oxazolone, 1.18; in the data set with biotinyl-Val-oxazolone, 1.19; with biotinyl-Leu-oxazolone, 0.82; in the data set on biotinyl-Trp-oxazolone it was 1.11.
For the sequence “AAGUUUGCUAAUAGUCAGAAG [Fam3.1 aminoacylation ribozyme variant]”, the self-aminoacylation came to 2.61 with biotinyl-Phe-oxazolone; 0.943 in the data set with biotinyl-Ile-oxazolone; 1.01 in the data set with biotinyl-Met-oxazolone; 0.937 in the data set with biotinyl-Val-oxazolone; 0.808 in the data set on biotinyl-Leu-oxazolone; 2.22 in the data set with biotinyl-Trp-oxazolone.
Regarding “AAGUUUGCUAAUAGUCCCACG [Fam3.1 aminoacylation ribozyme variant]”, the self-aminoacylation with biotinyl-Phe-oxazolone was determined as 0.69; in the data set with biotinyl-Ile-oxazolone it was 0.727; with biotinyl-Met-oxazolone, 0.931; in the data set with biotinyl-Val-oxazolone it was 0.679; with biotinyl-Leu-oxazolone, 0.838; in the data set with biotinyl-Trp-oxazolone it was 0.714.
Consider “AAGUUUGCUAAUAGUCCCAUG [Fam3.1 aminoacylation ribozyme variant]”, for which the self-aminoacylation in the data set on biotinyl-Phe-oxazolone came out at 0.885; in the data set on biotinyl-Ile-oxazolone, 0.978; in the data set on biotinyl-Met-oxazolone, 0.887; in the data set on biotinyl-Val-oxazolone it was 1.13; with biotinyl-Leu-oxazolone, 0.89; with biotinyl-Trp-oxazolone, 1.19.
In the case of “AAGUUUGCUAAUAGUCCCCAG [Fam3.1 aminoacylation ribozyme variant]”, the self-aminoacylation was 1.27 with biotinyl-Phe-oxazolone; 1 in the data set with biotinyl-Ile-oxazolone; 1.01 with biotinyl-Met-oxazolone; 0.901 with biotinyl-Val-oxazolone; 0.928 in the data set on biotinyl-Leu-oxazolone; 1.69 with biotinyl-Trp-oxazolone.
Regarding “AAGUUUGCUAAUAGUCGAAAG [Fam3.1 aminoacylation ribozyme variant]”, the self-aminoacylation with biotinyl-Phe-oxazolone is 17.9; in the data set with biotinyl-Ile-oxazolone it was 1.38; in the data set on biotinyl-Met-oxazolone it was 1.47; with biotinyl-Val-oxazolone, 1.22; with biotinyl-Leu-oxazolone it was 1.14; in the data set with biotinyl-Trp-oxazolone it was 5.4.
Regarding “AAGUUUGCUAAUAGUCGCAAU [Fam3.1 aminoacylation ribozyme variant]”, the self-aminoacylation with biotinyl-Phe-oxazolone worked out at 1.68; in the data set on biotinyl-Ile-oxazolone, 1.42; in the data set with biotinyl-Met-oxazolone it was 1.25; in the data set with biotinyl-Val-oxazolone, 1.26; with biotinyl-Leu-oxazolone, 1.19; in the data set with biotinyl-Trp-oxazolone, 1.22.
“AAGUUUGCUAAUAGUCGCAUA [Fam3.1 aminoacylation ribozyme variant]”: the self-aminoacylation in the data set on biotinyl-Phe-oxazolone is 1.58; with biotinyl-Ile-oxazolone, 1.21; in the data set on biotinyl-Met-oxazolone it was 0.936; with biotinyl-Val-oxazolone, 1.22; with biotinyl-Leu-oxazolone it was 0.954; in the data set with biotinyl-Trp-oxazolone, 1.23.
As to “AAGUUUGCUAAUAGUCGCGAC [Fam3.1 aminoacylation ribozyme variant]”, the self-aminoacylation in the data set with biotinyl-Phe-oxazolone is 1.05; in the data set with biotinyl-Ile-oxazolone it was 0.944; with biotinyl-Met-oxazolone, 1; in the data set with biotinyl-Val-oxazolone, 0.909; in the data set with biotinyl-Leu-oxazolone, 0.907; in the data set with biotinyl-Trp-oxazolone it was 1.19.
For “AAGUUUGCUAAUAGUCGCGGG [Fam3.1 aminoacylation ribozyme variant]”, the self-aminoacylation in the data set with biotinyl-Phe-oxazolone was found to be 19.6; with biotinyl-Ile-oxazolone it was 4.43; with biotinyl-Met-oxazolone it was 4.13; with biotinyl-Val-oxazolone, 3.77; in the data set on biotinyl-Leu-oxazolone it was 4.5; with biotinyl-Trp-oxazolone it was 4.82.
Take “AAGUUUGCUAAUAGUCGCUAA [Fam3.1 aminoacylation ribozyme variant]”: the self-aminoacylation in the data set on biotinyl-Phe-oxazolone stood at 1.96; in the data set with biotinyl-Ile-oxazolone, 1.33; in the data set with biotinyl-Met-oxazolone it was 1.13; in the data set on biotinyl-Val-oxazolone, 1.21; with biotinyl-Leu-oxazolone, 1.2; in the data set on biotinyl-Trp-oxazolone, 1.53.
Consider “AAGUUUGCUAAUAGUCGCUCG [Fam3.1 aminoacylation ribozyme variant]”, for which the self-aminoacylation with biotinyl-Phe-oxazolone is 0.809; with biotinyl-Ile-oxazolone it was 0.706; in the data set with biotinyl-Met-oxazolone, 0.815; in the data set with biotinyl-Val-oxazolone it was 0.657; in the data set on biotinyl-Leu-oxazolone it was 0.647; with biotinyl-Trp-oxazolone, 0.853.
In the case of “AAGUUUGCUAAUAGUCGUUAG [Fam3.1 aminoacylation ribozyme variant]”, the self-aminoacylation in the data set with biotinyl-Phe-oxazolone amounted to 2.27; in the data set on biotinyl-Ile-oxazolone it was 0.822; in the data set on biotinyl-Met-oxazolone, 0.676; in the data set on biotinyl-Val-oxazolone, 1.07; in the data set on biotinyl-Leu-oxazolone, 0.801; with biotinyl-Trp-oxazolone it was 1.05.
Turning to “AAGUUUGCUAAUAGUCUAAAG [Fam3.1 aminoacylation ribozyme variant]”, the self-aminoacylation came out at 5.62 with biotinyl-Phe-oxazolone; 1.28 in the data set on biotinyl-Ile-oxazolone; 0.959 in the data set on biotinyl-Met-oxazolone; 1.28 in the data set with biotinyl-Val-oxazolone; 0.882 with biotinyl-Leu-oxazolone; 1.9 with biotinyl-Trp-oxazolone.
“AAGUUUGCUAAUAGUCUGAAG [Fam3.1 aminoacylation ribozyme variant]”: the self-aminoacylation worked out at 3.77 in the data set on biotinyl-Phe-oxazolone; 1.01 in the data set with biotinyl-Ile-oxazolone; 0.971 in the data set on biotinyl-Met-oxazolone; 1.07 with biotinyl-Val-oxazolone; 0.996 in the data set with biotinyl-Leu-oxazolone; 1.34 in the data set with biotinyl-Trp-oxazolone.
As to “AAGUUUGCUAAUAGUCUUAAG [Fam3.1 aminoacylation ribozyme variant]”, the self-aminoacylation is 25.7 with biotinyl-Phe-oxazolone; 1.16 in the data set with biotinyl-Ile-oxazolone; 1.24 in the data set on biotinyl-Met-oxazolone; 1.11 in the data set with biotinyl-Val-oxazolone; 1.11 with biotinyl-Leu-oxazolone; 6.3 with biotinyl-Trp-oxazolone.
For “AAGUUUGCUAAUAGUGGCAAC [Fam3.1 aminoacylation ribozyme variant]”, the self-aminoacylation with biotinyl-Phe-oxazolone was determined as 0.826; in the data set on biotinyl-Ile-oxazolone it was 0.805; with biotinyl-Met-oxazolone, 0.737; with biotinyl-Val-oxazolone, 0.822; with biotinyl-Leu-oxazolone, 0.783; in the data set on biotinyl-Trp-oxazolone it was 0.575.
As to “AAGUUUGCUAAUAGUGGCAUG [Fam3.1 aminoacylation ribozyme variant]”, the self-aminoacylation is 1.1 with biotinyl-Phe-oxazolone; 0.823 in the data set with biotinyl-Ile-oxazolone; 0.821 in the data set on biotinyl-Met-oxazolone; 0.772 in the data set on biotinyl-Val-oxazolone; 0.754 in the data set with biotinyl-Leu-oxazolone; 0.862 in the data set with biotinyl-Trp-oxazolone.
